In publication PMC7512442:

Target: T1, RBM22 (pre-mRNA-splicing factor RBM22) (Homo sapiens, UniProt Q9NW64 1-420)
T1 sequence: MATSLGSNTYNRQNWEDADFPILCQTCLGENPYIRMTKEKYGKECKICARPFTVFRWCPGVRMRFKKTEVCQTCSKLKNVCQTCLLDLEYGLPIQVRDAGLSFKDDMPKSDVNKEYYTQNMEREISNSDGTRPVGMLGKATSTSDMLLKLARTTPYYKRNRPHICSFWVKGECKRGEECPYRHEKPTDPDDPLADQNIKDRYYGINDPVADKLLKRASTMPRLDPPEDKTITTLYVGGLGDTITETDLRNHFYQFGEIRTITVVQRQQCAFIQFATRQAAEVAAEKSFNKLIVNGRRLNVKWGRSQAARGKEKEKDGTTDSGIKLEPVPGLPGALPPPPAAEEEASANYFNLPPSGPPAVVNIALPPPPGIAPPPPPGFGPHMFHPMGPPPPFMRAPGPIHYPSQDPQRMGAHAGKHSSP
Experiment: EMSA

GGGGAUCCACAUGGUUCUUGCCUUUU (ssRNA) [human U5 snRNA fragment (nonspecific control)]
binding result: no binding
